From US20240409645A1 (DUALYX, published 2024)
Changes are numbered by the printed parent chain.

T1: human IL-2Rα (human, UniProt P01589 22-240, limits assumed)
T1 construct: recombinant protein; also called hu IL-2R; human IL-2Ra
T1 sequence: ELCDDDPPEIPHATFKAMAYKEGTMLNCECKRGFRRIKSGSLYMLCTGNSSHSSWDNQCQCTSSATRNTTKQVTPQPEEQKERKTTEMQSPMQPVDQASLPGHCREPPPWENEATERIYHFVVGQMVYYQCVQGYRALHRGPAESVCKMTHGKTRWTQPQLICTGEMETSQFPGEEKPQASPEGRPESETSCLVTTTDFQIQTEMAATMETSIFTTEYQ

T2: mouse IL-2Rα (mouse, UniProt P01590 22-236, limits assumed)
T2 construct: recombinant protein; also called mo IL-2R; mouse IL-2Ra
T2 sequence (looked up): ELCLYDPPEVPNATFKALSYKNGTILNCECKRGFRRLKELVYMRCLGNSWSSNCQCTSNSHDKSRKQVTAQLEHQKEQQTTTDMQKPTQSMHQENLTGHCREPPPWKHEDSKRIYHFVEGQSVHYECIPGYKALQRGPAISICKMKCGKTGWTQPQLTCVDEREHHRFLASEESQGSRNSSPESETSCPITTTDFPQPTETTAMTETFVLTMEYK

B1: FJ1427_P035MP05E04 (VHH)
VHH: QVQLVESGGGLVQAGGSLRLSCAASGGTFRTRNMGWFRRAPGKEREFVAAVSWSVDNKLYAGSVKGRFTISRDNGRNMVYLQMNSLKPEDTAVYYCAADNIPLSSDMRPTATEFGYWGQGTRVTVSS
notes: periplasmic extract; also called clone nr
B2: FJ1427_P035MP01C11 (VHH)
VHH: B1 VHH with S54N, F114Y, G115D, R122Q
notes: periplasmic extract; also called clone nr; 83
B3: FJ1427_P035MP05A05 (VHH)
VHH: QLQLVESGGGLVQAGGSLRLSCAASGLTFDGYAIGWFRQASGKEREGVSYINGRDGSTFYADSVKGRFIISSDNAKNTVDLQMNSLKPDDAAVYYCAVDRLGSRGAYVSTWWRPPDMDLWGKGTLVTVSP
notes: periplasmic extract; also called clone nr; 417
B4: FJ1427_P035MP05C06 (VHH)
VHH: B3 VHH with L2V, A61T, T110S, P114S, P130S
notes: as for B1
B5: FJ1427_P035MP05D04 (VHH)
VHH: B3 VHH with K87N, T110S, P114S, P130S
notes: as for B1
B6: FJ1427_P035MP05H08 (VHH)
VHH: B3 VHH with P114S, P130S
notes: as for B1
B7: FJ1427_P035MP05B05 (VHH)
VHH: EVQLVESGGGLVQAGGSLRLSCAASGFTFDGYAVGWFRQAPGKEPEGVSYITGSDGVTYYIDSVKGRFTISSDNAKRTVYLQMNTLKPEDTAVYYCAVDRLGSQGRYASSWWRAGDMDFWGKGTLVTVSS
notes: as for B1
B8: 9-MP05G01 (VHH)
VHH: EVQLVESGGGLVQAGGSLRLSCAASGGSIYTYNMGWFRQAPGKEREFVAGTLWSGGDSVYADFAKGRFTLSRENAKNTLYLQMNSLKPEDTATYYCAIDPLSLTSDWRVDELSSWGKGTLVTVSS
notes: periplasmic extract; also called FJ1427_P035MP05G01
B9: FJ1427_P035MP05A10 (VHH)
VHH: QLQLVESGGGLVQAGGSLRLSCTASGLTFDGYAIGWFRQAPGKEREGVSYITGSDGSTYYIDSVKGRFTISSDIAKSTVYLQMNSLKPEDTAVYYCAVDRLGSRGLYASSWWRSGDMDLWGKGTLVTVSS
notes: as for B1
B10: FJ1427_P035MP05D10 (VHH)
VHH: B9 VHH with L2V, I61R, I74N, S85T
notes: periplasmic extract; also called clone nr; 460
B11: 11-MP05H04 (VHH)
VHH: B9 VHH with T23A, D30E, S57T, D62N, I74N, S85T, R104Q, L106R, S110A, L125Q
notes: periplasmic extract; also called FJ1427_P035MP05H04
B12: FJ1427_P035MP05E10 (VHH)
VHH: B9 VHH with Q1E, L2V
notes: as for B1
B13: FJ1427_P035MP05H09 (VHH)
VHH: B9 VHH with G10D, A14P, D55N, S85T
notes: as for B1
B14: FJ1427_P035MP05C11 (VHH)
VHH: B9 VHH with L2V, D30E, G56A, I74F, S85N, L106G
notes: as for B1
B15: FJ1427_P035MP05G08 (VHH)
VHH: B9 VHH with D30E, G56A, I74F, S85N, L106G
notes: as for B1
B16: FJ1427_P035MP05C09 (VHH)
VHH: QLQLVESGGGLVQAGGSLRLSCAASGFTFDGYAIGWFRQAPGKEREGVSYITGSDGSTYYADSVKGRFTISSNNAKNTVYLHMNSLKPDDAAVYYCAIDRLGSRGAYVPIWWRSSDMDLWGKGTLVTVSS
notes: as for B1
B17: FJ1427_P035MP05B08 (VHH)
VHH: QLQLVESGGGLVQAGGSLRLSCVAHGLTFDGYAIGWFRQAPGKELEGVSYITGSDGSRYYADSVKGRFTISSDVAKNTVYLHMNNLKPDDAARYYCAVDRLGSRGAYVSAWWRSSDMDLWGKGTLVTVSS
notes: as for B1
B18: 12-MP05B12 (VHH)
VHH: B16 VHH with L2V
notes: periplasmic extract; also called FJ1427_P035MP05B12
B19: FJ1427_P035MP05C10 (VHH)
VHH: B16 VHH with A14T, A23S, A24T, R45P, N73D, R104G
notes: as for B1

These binders were tested against T1, human IL-2Rα (assay: ELISA, P.E. on coated antigen).
Outline: (§1)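 Human or mouse IL-2Rα, IL-2Rβ or IL-2Rγ protein coated directly overnight at 4° C, blocked with 4% Marvel/PBS for 1 hour.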

Row | OD (PE binding ELISA) [OD450 nm] | Binder
1 | 2.38 | B1
2 | 2.78 | B2
3 | 1.86 | B3
4 | 2.43 | B4
5 | 1.91 | B5
6 | 2.17 | B6
7 | 2.15 | B7
8 | 2.35 | B8
9 | 2.18 | B9
10 | 2.09 | B10
11 | 2.22 | B11
12 | 2.27 | B12
13 | 2.26 | B13
14 | 2.14 | B14
15 | 2.39 | B15
16 | 0.366 | B16
17 | 1.88 | B17
18 | 2.14 | B18
19 | 0.63 | B19

What follows are binders tested against T2, mouse IL-2Rα (assay: ELISA, P.E. on coated antigen).
Outline: as §1

Row | OD (PE binding ELISA) [OD450 nm] | Binder
20 | 0.046 | B1
21 | 0.045 | B2
22 | 0.052 | B3
23 | 0.071 | B4
24 | 0.045 | B5
25 | 0.05 | B6
26 | 0.045 | B7
27 | 0.047 | B8
28 | 0.24 | B9
29 | 0.107 | B10
30 | 0.163 | B11
31 | 0.718 | B12
32 | 0.154 | B13
33 | 0.632 | B14
34 | 0.38 | B15
35 | 0.059 | B16
36 | 0.057 | B17
37 | 0.936 | B18
38 | 0.071 | B19

Each binder was assayed against T1, human IL-2Rα (assay: SPR, P.E. on immobilised antigen).
Outline: (§2)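 Recombinant receptor was amine-coupled in acetate buffer onto a CM5 carboxymethyl dextran chip at approximately 2500 RU. VHH-containing periplasmic extracts were injected at 30 uL/min, and dissociation was followed for 120s to give off-rates.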

Row | koff [s⁻¹] | Binder
39 | 0.00158 | B1
40 | 0.000556 | B2
41 | 0.00341 | B3
42 | 0.000659 | B4
43 | 0.00224 | B5
44 | 0.00278 | B6
45 | 0.00103 | B7
46 | 0.000169 | B8
47 | 0.0012 | B9
48 | 0.00108 | B10
49 | 0.0012 | B11
50 | 0.00169 | B12
51 | 0.00105 | B13
52 | 0.00044 | B14
53 | 0.000908 | B15
54 | 0.00609 | B16
55 | 0.00253 | B17
56 | 0.000222 | B18
57 | 0.00406 | B19

Each binder was assayed against T2, mouse IL-2Rα (assay: SPR, P.E. on immobilised antigen).
Outline: as §2

Row | koff [s⁻¹] | Binder
58 | 0.196 | B1
59 | 0.351 | B2
60 | 0.0172 | B3
61 | 0.00311 | B4
62 | 0.0122 | B5
63 | 0.0129 | B6
64 | 0.0114 | B7
65 | 0.0442 | B8
66 | 0.00321 | B9
67 | 0.00284 | B10
68 | 0.00163 | B11
69 | 0.00177 | B12
70 | 0.00244 | B13
71 | 0.000844 | B14
72 | 0.00258 | B15
73 | 0.00435 | B16
74 | 0.00608 | B17
75 | 0.000547 | B18
76 | 0.00403 | B19
